2 compounds from US20160326230A1, “HUMAN RELAXIN ANALOGUE, PHARMACEUTICAL COMPOSITION OF SAME, AND PHARMACEUTICAL APPLICATION OF SAME” (SHANGHAI HENGRUI PHARMACEUTICAL CO., LTD., priority 2013, published 2016) can be followed below.

One series deals with THP-1 cells. As to the kind of experiment: In vitro bioactivity assay: cAMP production induced in THP-1 cells (cAMP ELISA). In kind it is cell-based. The note with it: 30 min incubation, forskolin + IBMX, average of three experiments, listed as 800828 (WT). Here is the method:
The disclosed human relaxin analog (800814) binds to the receptor on THP-1 cells, and induces the production of cAMP in THP-1 cells. To determine the in vitro activity of human relaxin analog (800814), the generation of cAMP was detected. The wild-type human relaxin analog 800828 (WT) (prepared in Example 29) with the original sequence was used in this test as a positive control.
The cells used in the experiments, i.e., THP-1 (ATCC, Product Number: TIB-202™), were cultured in suspension at 37° C., 5% CO2, and used for experiments or passage when the cells were preferably in the logarithmic growth phase. THP-1 cells can be passaged every 2-3 days, with a dilution ratio of 1:3 to 1:4. The medium was RPMI1640, with 0.05 mM b-mercaptoethanol and 10% FBS. On the day of the experiment, THP-1 cells in logarithmic growth phase were collected by centrifugation, and resuspended in DMEM/F12. The cell density was adjusted to 2×10^6 cells/ml, and the cells were seeded in a 96-well plate (50 μl each well) and incubated in a 37° C. incubator for 30 minutes. […] The content of cAMP was detected with a CAMP ELISA KIT (CELL BIOLABS).
Data obtained in the above experiment was fit to a nonlinear curve using Graphpad Prism, and the EC50 value (ng/ml) of CAMP induced in the THP-1 cells by human relaxin analog (800814) was determined.
(Cyclic AMP is a second messenger, typically raised through Gs and lowered through Gi signalling.)

A further series relates to ICR mice. The series is described as follows: In vivo biological activity: pubis width in estradiol-primed female ICR mice. To be noted: s.c. 6 μg/100 μl/mouse, 40 hours later, ratio to solvent control group (=1). The method, then: ICR mice (female, purchased from SINO-BRITSH SIPPR/BK LAB. ANIMAL LTD., CO, Certificate No.: SCXK (Shanghai) 2008-0016, 18-20 g) were used in this test, and the maintenance environment was SPF grade. After their purchase, ICR mice were kept in the laboratory environment for two weeks in the following conditions: illumination: 12/12-hour light/dark cycle regulation, temperature: 20-25° C.; humidity: 40-60%. The wild-type human relaxin analog 800828 (WT, prepared in Example 29) with the original sequence was used as a positive control in this test.
One week before the experiment, each female ICR mouse was subcutaneously injected with 5 μg/100 μ1/animal of β-estradiol (water-insoluble, slightly soluble in oil), which was mixed with olive oil. Six days later, ICR mice with a body weight less than 22 g were excluded, and the rest of the animals were equally divided into groups according to body weight. The animals were subcutaneously injected with relaxin 800828 (WT) ([…]/100 μl/mouse), 800814 (6 μg/100 μl/mouse) or 0.1% benzopurpurine 4B saline (solvent control group). Relaxin 800828 (WT) and 800814 were dissolved in physiological saline containing 0.1% benzopurpurin 4B. 40 hours later, the pubic bones were removed, skin and muscle were removed from the bone, and the pubis width was measured under microscope. […]

Series [1] can be described thus: In vivo half-life measurement in rats (Human relaxin-2 ELISA of blood samples). On the set-up: species or system Sprague Dawley (SD) rats. To be noted: SD rats, caudal vein injection, 0.5 mg/kg/rat. Here is the method:
A total of 12 experimental Sprague Dawley (SD) rats (6 male and 6 female) were used in this test (purchased from SINO-BRITSH SIPPR/BK LAB. ANIMAL LTD., CO, Certificate No.: SCXK (Shanghai) 2008-0016, 160-180 g), and the maintenance environment was SPF grade. SD rats were kept for 3 days in the laboratory environment, at a temperature of 20-25° C., with a humidity of 40-60%. The wild-type human relaxin analog 800828 (WT, prepared in Example 29) with the original sequence was used as a positive control in this test.
Rats were randomly divided into 3 groups, with 4 rats in each group, half males and half females. Control (saline) and human relaxin (analog 800814, WT 800828) were injected into the caudal vein of the rats (4 rats/sample) with a dose of 0.5 mg/kg/rat. Blood samples were taken from the rats' orbital sinuses at 0 h, 0.03 h, 0.08 h, 0.25 h, 0.5 h, 1 h, 1.5 h, 2 h, 4 h, 6 h and 8 h after the injections. Blood samples were centrifuged, and the supernatant was collected and stored at −20° C. for further analysis. After blood collection, the content of relaxin in the blood samples was detected using the Human relaxin-2 Quantikine ELISA Kit (R&D). The T1/2 of the test drug was calculated by T1/2 formula and EXCEL.
(An ELISA detects its analyte on a solid surface through an enzyme-linked reagent.)

Take “relaxin 800828: wild-type human relaxin with the original sequence, expressed in E. coli, refolded and digested; positive control; precursor SEQ ID NO: 23”: in the series with THP-1 cells, the “EC50 of cAMP induced in THP-1 cells” value worked out at 3.05 ng/mL. Moreover, in the series with ICR mice, the relative pubic width was 1.24. In series [1], this compound returned a T1/2 of 52.2 min.
As to `CC[C@H](C)[C@@H]1NC(=O)[C@H](C)NC(=O)[C@H]([C@@H](C)CC)NC(=O)[C@H](CCC(N)=O)NC(=O)[C@H](C)NC(=O)[C@H](CCCNC(=N)N)NC(=O)[C@H](C(C)C)NC(=O)[C@H](CC(C)C)NC(=O)[C@H](CC(=O)O)NC(=O)[C@H](CCCNC(=N)N)NC(=O)CNC(=O)[C@@H](NC(=O)[C@H](CC(C)C)NC(=O)[C@H](CCCCN)NC(=O)[C@@H](NC(=O)[C@@H](NC(=O)[C@H](CCC(=O)O)NC(=O)[C@H](CCC(=O)O)NC(=O)[C@H](CCSC)NC(=O)[C@H](Cc2c[nH]c3ccccc23)NC(=O)[C@H](CO)NC(=O)[C@@H](N)CC(=O)O)C(C)C)[C@@H](C)CC)CSSC[C@@H]2NC(=O)[C@@H](NC(=O)[C@H](CCCCN)NC(=O)[C@H](CC(N)=O)NC(=O)[C@H](C)NC(=O)[C@H](CC(C)C)NC(=O)[C@H](C)NC(=O)[C@H](CO)NC(=O)[C@H](Cc3ccc(O)cc3)NC(=O)[C@H](CC(C)C)NC(=O)[C@@H](N)CC(=O)O)CSSC[C@H](NC(=O)CNC(=O)[C@H](C(C)C)NC(=O)[C@H](Cc3c[nH]cn3)NC2=O)C(=O)N[C@@H]([C@@H](C)O)C(=O)N[C@@H](CCCCN)C(=O)N[C@@H](CCCNC(=N)N)C(=O)N[C@@H](CO)C(=O)N[C@@H](CC(C)C)C(=O)N[C@@H](C)C(=O)N[C@@H](CCCNC(=N)N)C(=O)N[C@@H](Cc2ccccc2)C(=O)N[C@H](C(=O)O)CSSC[C@@H](C(=O)NCC(=O)N[C@@H](CCSC)C(=O)N[C@@H](CO)C(=O)N[C@H](C(=O)N[C@@H](Cc2c[nH]c3ccccc23)C(=O)N[C@@H](CO)C(=O)O)[C@@H](C)O)NC1=O` [relaxin 800814], the T1/2 result in series [1] was “does not affect its half-life”. The same compound had a half-life in series [1] (both sexes, Sprague Dawley, supernatant of centrifuged blood, iv) of 52.8 min.

Broadly, the half-life is the time in which the quantity being followed falls by half.
